Laboratory results taken from US20180073039A1 (SINAI HEALTH SYSTEM, published 2018).

Columns and labels:
[1] = system: ubiquitylated HA-PALB2 (1-103) (in vitro ubiquitylated by CRL3-KEAP1)
HA-PALB2 (1-103) = system: T1, HA-PALB2 (1-103)
T1 sequence: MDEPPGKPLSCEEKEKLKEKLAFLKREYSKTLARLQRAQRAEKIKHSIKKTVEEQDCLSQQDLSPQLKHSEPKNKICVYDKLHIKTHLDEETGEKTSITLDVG

[2] = biological target: T2, BRCA2 (Homo sapiens breast cancer 2) (human, UniProt P51587 1-3418); assay: PALB2 immunoprecipitation from 293T extracts synchronized in S or G1, immunoblot
T2 construct: Endogenous protein in 293T extracts, detected by immunoblot

Question: “glutathione S-transferase (GST)-USP11 (Sus scrofa (pig) USP11)” was tested. Which “deubiquitylation reaction, immunoblot” value [1] did it give?
Answer: recombinant USP11 can directly de-ubiquitylate PALB2 (1-103)

Question: How did the “in vitro ubiquylation of HA-PALB2 (1-103), immunoblot and mass spectrometry” value (HA-PALB2 (1-103)) turn out when “recombinant CRL3-KEAP1 (neddylated CUL3/RBX1 with GST-mKEAP1)” was run?
Answer: ubiquitylation of the N-terminus of PALB2 (residues 1-103; fused to a haemagglutinin (HA) epitope tag) could be readily reconstituted by recombinant CRL3-KEAP1

B1: PALB2 (partner and localizer of BRCA2) (other)
chain: MDEPPGKPLSCEEKEKLKEKLAFLKREYSKTLARLQRAQRAEKIKHSIKKTVEEQDCLSQQDLSPQLKHSEPKNKICVYDKLHIKTHLDEETGEKTSITLDVGPESFNPGDGPGGLPIQRTDDTQEHFPHRVSDPSGEQKQKLPSRRKKQQKRTFISQERDCVFGTDSLRLSGKRLKEQEEISSKNPARSPVTEIRTHLLSLKSELPDSPEPVTEINEDSVLIPPTAQPEKGVDTFLRRPNFTRATTVPLQTLSDSGSSQHLEHIPPKGSSELTTHDLKNIRFTSPVSLEAQGKKMTVSTDNLLVNKAISKSGQLPTSSNLEANISCSLNELTYNNLPANENQNLKEQNQTEKSLKSPSDTLDGRNENLQESEILSQPKSLSLEATSPLSAEKHSCTVPEGLLFPAEYYVRTTRSMSNCQRKVAVEAVIQSHLDVKKKGFKNKNKDASKNLNLSNEETDQSEIRMSGTCTGQPSSRTSQKLLSLTKVSSPAGPTEDNDLSRKAVAQAPGRRYTGKRKSACTPASDHCEPLLPTSSLSIVNRSKEEVTSHKYQHEKLFIQVKGKKSRHQKEDSLSWSNSAYLSLDDDAFTAPFHRDGMLSLKQLLSFLSITDFQLPDEDFGPLKLEKVKSCSEKPVEPFESKMFGERHLKEGSCIFPEELSPKRMDTEMEDLEEDLIVLPGKSHPKRPNSQSQHTKTGLSSSILLYTPLNTVAPDDNDRPTTDMCSPAFPILGTTPAFGPQGSYEKASTEVAGRTCCTPQLAHLKDSVCLASDTKQFDSSGSPAKPHTTLQVSGRQGQPTCDCDSVPPGTPPPIESFTFKENQLCRNTCQELHKHSVEQTETAELPASDSINPGNLQLVSELKNPSGSCSVDVSAMFWERAGCKEPCIITACEDVVSLWKALDAWQWEKLYTWHFAEVPVLQIVPVPDVYNLVCVALGNLEIREIRALFCSSDDESEKQVLLKSGNIKAVLGLTKRRLVSSSGTLSDQQVEVMTFAEDGGGKENQFLMPPEETILTFAEVQGMQEALLGTTIMNNIVIWNLKTGQLLKKMHIDDSYQASVCHKAYSEMGLLFIVLSHPCAKESESLRSPVFQLIVINPKTTLSVGVMLYCLPPGQAGRFLEGDVKDHCAAAILTSGTIAIWDLLLGQCTALLPPVSDQHWSFVKWSGTDSHLLAGQKDGNIFVYHYS
notes: Endogenous protein in extracts of human 293T cells, immunoprecipitated with rabbit anti-PALB2 or detected by immunoblot; NCBI NP_078951.2
Question: Does B1 bind [2]?
Answer: binds
